Measurements taken from patent US10407712B2, “Methods, compositions and kits for high throughput kinase activity screening using mass spectrometry and stable isotopes” (President and Fellows of Harvard College, priority 2008, dated 2019).

Assays:
[1] = tested on: HEK293 cell lysates; test: Single-reaction 90-substrate KAYAK assay, HEK293 lysates with or without insulin; assay type: biochemical, human; conditions: 5 μM each peptide, HEK293 lysate
Method: For stimulation of HEK293 cells or HeLa lines, cells were treated with insulin (100 nM; 10-30 min) EGF (50 ng/ml; 10 min) or phorbol 12-myristate 13-acetate (PMA; 50 or 100 ng/ml; 10 -30 min) at 37° C. for the indicated times after overnight serum-starvation.
Alternatively, cells were washed with PBS once and lysed with ice-cold lysis buffer, 10 mM potassium phosphate, pH 7.0, containing 0.5% NP-40, 0.1% Brij 35, 0.1% deoxycholic acid, 1 mM ethylenediaminetetraacetic acid (EDTA), 5 mM ethylene glycol tetraacetic acid (EGTA), 10 mM MgCl2, 50 mM β-glycerophosphate, 1 mM Na3VO4, 2 mM dithiothreitol (DTT) and protease inhibitor cocktail (Complete, Roche Applied Science, Indianapolis, Ind.). Homogenates were centrifuged at 10,000 rpm for 15 min at 4° C., and the supernatant was used as lysate. Protein concentration was quantified by a modified Bradford assay (Pierce).
(§1) Peptides were synthesized, purified and quantified as described in Yu et al. 2009 Proc Natl Acad Sci USA 106: 11606-11611, hereby incorporated by reference herein in its entirety. Each substrate peptide (250 pmol) was mixed to a final concentration of 5 μM in the 50 μL reaction mixture. Alternatively, reactions were performed using 6 μg cell lysate aliquotes mixed to a final volume of 20 μl. Cell lysate or other kinase source was added to the substrate mixture in 25 mM Tris-Cl, pH 7.5, containing 5 mM ATP, 7.5 mM MgCl2, 0.2 mM EGTA, 7.5 mM β-glycerophosphate, 0.1 mM Na3VO4, and 0.1 mM DTT. The reaction was incubated at 25° C. for 60 min and then terminated by the addition of 100 μl of 1% trifluoroacetic acid (TFA) containing a known amount of an internal standard (typically 20 pmol). Alternatively, the reaction was incubated at 20° C. for 45 min before termination with TFA.
Internal standard heavy peptides (5 pmol each) were added as a mixture to the terminated reactions followed by desalting with a solid phase extraction cartridge (SepPak tC18 (50 mg), Waters, Milford, Mass.). Phosphopeptides were enriched as described (Villen et al. 2008 Nat Protoc 3: 1630-1638). […]
For KAYAK analyses, phosphopeptides were dissolved in 5% FA and injected onto a 125-μm-internal diameter fused silica column packed with Magic C18 AQ material (Michrom Bioresources, Auburn, Calif.). Peptides were separated using a two-solvent system: solvent A (0.125% FA and 3% ACN in H2O), solvent B (0.125% FA in ACN) over 32 min gradient, and eluting peptides were directly analyzed using an LTQ-Orbitrap mass spectrometer (Thermo Scientific, San Jose, Calif.) equipped with the electron transfer dissociation option. […]

[2] = biological target: T1, recombinant RSK1 (Homo sapiens, UniProt Q15418); test: In vitro peptide phosphorylation by purified RSK; assay type: biochemical; conditions: 100 μM peptide, individually reacted
T1 construct: 90 kDa ribosomal S6 kinases 1 (RSK1, 1-735); purchased Cell Signaling Technology (Danvers, Mass.)
T1 sequence (Q15418 whole entry): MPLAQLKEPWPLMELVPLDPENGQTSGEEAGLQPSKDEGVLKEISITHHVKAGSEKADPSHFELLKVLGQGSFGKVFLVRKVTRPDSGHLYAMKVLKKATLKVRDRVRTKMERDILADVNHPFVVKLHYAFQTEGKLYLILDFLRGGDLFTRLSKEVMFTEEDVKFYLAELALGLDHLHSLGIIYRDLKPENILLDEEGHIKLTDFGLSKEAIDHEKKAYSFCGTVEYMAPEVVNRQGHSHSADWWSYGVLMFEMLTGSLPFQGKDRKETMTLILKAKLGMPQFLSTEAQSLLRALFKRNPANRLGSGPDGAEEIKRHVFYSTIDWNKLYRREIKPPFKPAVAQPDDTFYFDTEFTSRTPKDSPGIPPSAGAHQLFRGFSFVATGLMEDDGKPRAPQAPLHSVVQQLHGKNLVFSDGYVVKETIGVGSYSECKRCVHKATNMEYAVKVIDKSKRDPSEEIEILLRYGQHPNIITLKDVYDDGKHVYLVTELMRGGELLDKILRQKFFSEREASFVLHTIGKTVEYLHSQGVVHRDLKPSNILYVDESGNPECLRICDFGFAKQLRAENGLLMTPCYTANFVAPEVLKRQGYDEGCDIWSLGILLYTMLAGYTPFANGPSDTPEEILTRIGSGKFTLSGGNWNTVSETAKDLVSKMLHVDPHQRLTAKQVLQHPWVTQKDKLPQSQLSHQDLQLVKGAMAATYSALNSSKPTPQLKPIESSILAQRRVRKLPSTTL
Text: (§2) Reaction mixture was supplemented with 0.1% BSA. Other conditions were the same as in FIG. 10A.
(§3) Purified human active kinases of Akt1 (full length), extracellular signal-regulated kinase 1 (ERK1, 1-379), mitogen-activated protein kinase kinase 1 (MEK1, 1-393), 90 kDa ribosomal S6 kinases 1 (RSK1, 1-735), cAMP-dependent protein kinase (PKA) catalytic subunit-α (PKA Cα, 1-351), protein kinase Cα (PKCα, full length), epidermal growth factor (EGF) receptor (EGFR, 672-1210), platelet-derived growth factor (PDGF) receptor α (PDGFRα, 550-1090), vascular endothelial growth factor (VEGF) receptor 1 (VEGFR1 784-1338), Src (full length), casein kinase 2 (CK2, full length), Aurora A (1-403), AMP-activated protein kinase α1β1γ1 (AMPK α1β1γ1, full length), glycogen synthase kinase-3α (GSK-3α, 1-483) and MAP/microtubule affinity-regulating kinase 1 (MARK 1, full length) were obtained from Cell Signaling Technology (Danvers, Mass.). Cdc2/cyclin B1 (full length) and insulin-like growth factor (IGF)-I receptor (IGFIR, 959-1367) were obtained from Upstate (Temecula, Calif.).
as §1, with “Each substrate peptide (250 pmol) was mixed to a final concentration of 5 μM in the 50 μL reaction mixture.” left out
It was observed that basal phosphorylation of these peptides was not affected by knockdown and likely was the result of remaining RSK isoforms or other basophilic kinases (FIG. 5C).

[3] = biological target: T2, activated, purified Akt (Homo sapiens, UniProt P31749); test: In vitro peptide phosphorylation by purified Akt; assay type: biochemical; conditions: 100 μM peptide, individually reacted
T2 construct: Purified human active kinases of Akt1 (full length); purchased Cell Signaling Technology (Danvers, Mass.)
T2 sequence (P31749 whole entry): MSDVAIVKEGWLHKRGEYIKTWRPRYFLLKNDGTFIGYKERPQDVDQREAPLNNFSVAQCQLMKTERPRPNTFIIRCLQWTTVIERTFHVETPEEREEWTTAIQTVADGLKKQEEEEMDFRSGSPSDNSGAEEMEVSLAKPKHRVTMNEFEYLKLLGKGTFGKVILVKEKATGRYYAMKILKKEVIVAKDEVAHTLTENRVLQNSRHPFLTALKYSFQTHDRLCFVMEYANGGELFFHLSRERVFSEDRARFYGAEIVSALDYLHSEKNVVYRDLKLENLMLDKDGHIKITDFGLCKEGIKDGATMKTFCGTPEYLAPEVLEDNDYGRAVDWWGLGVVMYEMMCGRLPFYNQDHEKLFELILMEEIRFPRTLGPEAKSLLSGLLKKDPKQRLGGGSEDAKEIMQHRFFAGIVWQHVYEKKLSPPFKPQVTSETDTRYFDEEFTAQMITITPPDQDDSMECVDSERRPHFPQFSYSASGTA
Text: as §2, §3
Peptides were synthesized, purified and quantified as described in Yu et al. 2009 Proc Natl Acad Sci USA 106: 11606-11611, hereby incorporated by reference herein in its entirety. […] Alternatively, reactions were performed using 6 μg cell lysate aliquotes mixed to a final volume of 20 μl. […]

RIRTQSFSLQPFR (The sequence was designed and synthesized) [F6]
phosphorylation in response to insulin stimulation [1]: increased phosphorylation
phosphorylation by RSK [2]: strong phosphorylation
phosphorylation by Akt [3]: strong phosphorylation
